Biological target: IL-17 receptor like polypeptide on human B-lymphoblast cell line GM3104A (human) (UniProt Q9NRM6)
Experiment: cell-based or functional assay

recombinant human IL-17E-Fc fusion protein, sequence (chain): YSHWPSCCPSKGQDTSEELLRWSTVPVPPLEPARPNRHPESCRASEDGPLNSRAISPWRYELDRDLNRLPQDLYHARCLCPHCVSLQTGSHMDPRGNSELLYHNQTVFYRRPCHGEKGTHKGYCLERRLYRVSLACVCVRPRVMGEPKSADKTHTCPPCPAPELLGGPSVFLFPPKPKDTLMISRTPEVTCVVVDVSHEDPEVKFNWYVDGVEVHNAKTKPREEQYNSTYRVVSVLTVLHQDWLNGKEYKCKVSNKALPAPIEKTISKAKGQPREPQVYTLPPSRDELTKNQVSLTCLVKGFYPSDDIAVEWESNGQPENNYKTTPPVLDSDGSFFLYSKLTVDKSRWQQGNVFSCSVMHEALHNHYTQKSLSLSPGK

recombinant human IL-17E-Fc fusion protein
IL-1α (pg/ml) released by GM3104A cells: 25 pg/mL
IL-6 (pg/ml) released by GM3104A cells: 362 pg/mL
TNF-α (pg/ml) released by GM3104A cells: 460 pg/mL

From patent US20050234221A1
